Test results reported in the supplement of paper PMC9112550, “Optimization of the antimicrobial peptide Bac7 by deep mutational scanning” (BMC Biology, 2022).

System: Escherichia coli TOP10
Experiment: shrunken log2 fold change of peptide-encoding DNA abundance (4.5 h post-induction vs induction); higher = less antimicrobial activity (less host growth inhibition)
Conditions: time post-induction: 4.5 h; library: site-saturation at positions 5, 18, 19, 20
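Note: peptides expressed intracellularly from a pBAD plasmid library in pooled LB shake-flask culture, induced with 0.3% L-arabinose, DNA abundance read by NGS, three biological replicates, DESeq2 with apeglm shrinkage.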

RRIRERPPRLPRPRPRPDIGPRP
shrunken log2 fold change: -0.0541

RRIRFRPPRLPRPRPRPLRNPRP
shrunken log2 fold change: 0.514

RRIRRRPPRLPRPRPRPKNAPRP
shrunken log2 fold change: 0.0423

RRIRQRPPRLPRPRPRPCHCPRP
shrunken log2 fold change: -0.00822

RRIRMRPPRLPRPRPRPRGCPRP
shrunken log2 fold change: 1.08

RRIRWRPPRLPRPRPRPPQMPRP
shrunken log2 fold change: 0.592

RRIRLRPPRLPRPRPRPQISPRP
shrunken log2 fold change: -0.272

RRIRERPPRLPRPRPRPSWTPRP
shrunken log2 fold change: -0.833

RRIRARPPRLPRPRPRPDEVPRP
shrunken log2 fold change: 0.446

RRIRDRPPRLPRPRPRPLIIPRP
shrunken log2 fold change: -0.0486

RRIRIRPPRLPRPRPRPHTWPRP
shrunken log2 fold change: -0.401

RRIRYRPPRLPRPRPRPLLCPRP
shrunken log2 fold change: -0.287

RRIRCRPPRLPRPRPRPVFWPRP
shrunken log2 fold change: 0.138

RRIRSRPPRLPRPRPRPHGEPRP
shrunken log2 fold change: -0.0153

RRIRKRPPRLPRPRPRPEGDPRP
shrunken log2 fold change: 1.24

RRIRVRPPRLPRPRPRPNTMPRP
shrunken log2 fold change: -0.293

RRIRMRPPRLPRPRPRPYAWPRP
shrunken log2 fold change: -0.107

RRIRTRPPRLPRPRPRPLDRPRP
shrunken log2 fold change: 0.0153

RRIRARPPRLPRPRPRPAWAPRP
shrunken log2 fold change: 0.48

RRIRHRPPRLPRPRPRPNTWPRP
shrunken log2 fold change: -0.0528

RRIRIRPPRLPRPRPRPDEIPRP
shrunken log2 fold change: 0.1

RRIRLRPPRLPRPRPRPGMAPRP
shrunken log2 fold change: 0.145

RRIRSRPPRLPRPRPRPTAVPRP
shrunken log2 fold change: 0.466

RRIRPRPPRLPRPRPRPHSQPRP
shrunken log2 fold change: -0.134

RRIRVRPPRLPRPRPRPVQVPRP
shrunken log2 fold change: -0.269

RRIRARPPRLPRPRPRPNDMPRP
shrunken log2 fold change: -0.00462

RRIRTRPPRLPRPRPRPKSFPRP
shrunken log2 fold change: 0.0134

RRIRERPPRLPRPRPRPAAAPRP
shrunken log2 fold change: 0.436

RRIRIRPPRLPRPRPRPDIEPRP
shrunken log2 fold change: -0.185

RRIRIRPPRLPRPRPRPSFKPRP
shrunken log2 fold change: -0.494

RRIRKRPPRLPRPRPRPWNTPRP
shrunken log2 fold change: -0.332

RRIRVRPPRLPRPRPRPGFRPRP
shrunken log2 fold change: 0.205

RRIRARPPRLPRPRPRPFHWPRP
shrunken log2 fold change: 0.277

RRIRTRPPRLPRPRPRPLKLPRP
shrunken log2 fold change: -0.251

RRIRHRPPRLPRPRPRPKVWPRP
shrunken log2 fold change: 0.331

RRIRCRPPRLPRPRPRPYSHPRP
shrunken log2 fold change: -0.595

RRIRPRPPRLPRPRPRPPWSPRP
shrunken log2 fold change: 0.00901

RRIRMRPPRLPRPRPRPEYVPRP
shrunken log2 fold change: 0.16

RRIRKRPPRLPRPRPRPCCTPRP
shrunken log2 fold change: -0.0454

RRIRLRPPRLPRPRPRPVASPRP
shrunken log2 fold change: -0.0255

RRIRFRPPRLPRPRPRPLNLPRP
shrunken log2 fold change: -0.542

RRIRDRPPRLPRPRPRPPMIPRP
shrunken log2 fold change: -0.588

RRIRYRPPRLPRPRPRPLKPPRP
shrunken log2 fold change: -0.696

RRIRKRPPRLPRPRPRPFSSPRP
shrunken log2 fold change: -0.219

RRIRYRPPRLPRPRPRPCCDPRP
shrunken log2 fold change: -0.479

RRIRERPPRLPRPRPRPLLKPRP
shrunken log2 fold change: -0.439

RRIRFRPPRLPRPRPRPHTCPRP
shrunken log2 fold change: 0.00442

RRIRGRPPRLPRPRPRPGSAPRP
shrunken log2 fold change: 0.972

RRIRPRPPRLPRPRPRPFTWPRP
shrunken log2 fold change: -0.236

RRIRTRPPRLPRPRPRPECSPRP
shrunken log2 fold change: 0.0479

RRIRQRPPRLPRPRPRPEERPRP
shrunken log2 fold change: 0.104

RRIRFRPPRLPRPRPRPFSVPRP
shrunken log2 fold change: -1.57

RRIRIRPPRLPRPRPRPDFPPRP
shrunken log2 fold change: 0.058

RRIRSRPPRLPRPRPRPCLSPRP
shrunken log2 fold change: -0.000866

RRIRRRPPRLPRPRPRPYTSPRP
shrunken log2 fold change: -0.313

RRIRCRPPRLPRPRPRPWRHPRP
shrunken log2 fold change: -0.126

RRIRYRPPRLPRPRPRPMGEPRP
shrunken log2 fold change: 0.0325

RRIRPRPPRLPRPRPRPQYAPRP
shrunken log2 fold change: -0.103

RRIRYRPPRLPRPRPRPAINPRP
shrunken log2 fold change: -0.051

RRIRPRPPRLPRPRPRPDAQPRP
shrunken log2 fold change: 0.271

RRIRQRPPRLPRPRPRPIQDPRP
shrunken log2 fold change: 0.0208

RRIRCRPPRLPRPRPRPPMWPRP
shrunken log2 fold change: 0.557

RRIRYRPPRLPRPRPRPGFRPRP
shrunken log2 fold change: -0.322

RRIRTRPPRLPRPRPRPRVCPRP
shrunken log2 fold change: 0.369

RRIRFRPPRLPRPRPRPVWLPRP
shrunken log2 fold change: -0.0732

RRIRWRPPRLPRPRPRPTMQPRP
shrunken log2 fold change: 0.13

RRIRPRPPRLPRPRPRPLWLPRP
shrunken log2 fold change: -0.0275

RRIRWRPPRLPRPRPRPPHTPRP
shrunken log2 fold change: 0.494

RRIRARPPRLPRPRPRPVYFPRP
shrunken log2 fold change: -0.135

RRIRGRPPRLPRPRPRPILVPRP
shrunken log2 fold change: 0.133

RRIRPRPPRLPRPRPRPDRAPRP
shrunken log2 fold change: 0.622

RRIRMRPPRLPRPRPRPREPPRP
shrunken log2 fold change: 0.447

RRIRLRPPRLPRPRPRPLSMPRP
shrunken log2 fold change: -0.163

RRIRCRPPRLPRPRPRPVYRPRP
shrunken log2 fold change: -0.445

RRIRQRPPRLPRPRPRPVYFPRP
shrunken log2 fold change: -0.446

RRIRLRPPRLPRPRPRPVRTPRP
shrunken log2 fold change: 0.175

RRIRGRPPRLPRPRPRPGEAPRP
shrunken log2 fold change: 1.48

RRIRVRPPRLPRPRPRPWLYPRP
shrunken log2 fold change: -0.157

RRIRLRPPRLPRPRPRPTLHPRP
shrunken log2 fold change: 0.18

RRIRNRPPRLPRPRPRPDVEPRP
shrunken log2 fold change: -0.00443

RRIRPRPPRLPRPRPRPREQPRP
shrunken log2 fold change: 0.00917

RRIRFRPPRLPRPRPRPIETPRP
shrunken log2 fold change: -0.186

RRIRGRPPRLPRPRPRPLVEPRP
shrunken log2 fold change: 1.2

RRIRARPPRLPRPRPRPHDCPRP
shrunken log2 fold change: -0.16

RRIRCRPPRLPRPRPRPQHKPRP
shrunken log2 fold change: -0.543

RRIRKRPPRLPRPRPRPCIGPRP
shrunken log2 fold change: 0.0382

RRIRKRPPRLPRPRPRPDEQPRP
shrunken log2 fold change: 2.64

RRIRKRPPRLPRPRPRPWLFPRP
shrunken log2 fold change: 0.202

RRIRERPPRLPRPRPRPYDFPRP
shrunken log2 fold change: -0.0231

RRIRLRPPRLPRPRPRPVPKPRP
shrunken log2 fold change: 0.282

RRIRTRPPRLPRPRPRPILYPRP
shrunken log2 fold change: -0.275

RRIRMRPPRLPRPRPRPSKVPRP
shrunken log2 fold change: 0.167

RRIRIRPPRLPRPRPRPLINPRP
shrunken log2 fold change: -0.444

RRIRYRPPRLPRPRPRPMWVPRP
shrunken log2 fold change: -0.0664

RRIRSRPPRLPRPRPRPSRYPRP
shrunken log2 fold change: -0.148

RRIRARPPRLPRPRPRPWWRPRP
shrunken log2 fold change: 0.0229

RRIRMRPPRLPRPRPRPHRWPRP
shrunken log2 fold change: 0.478

RRIRDRPPRLPRPRPRPRRVPRP
shrunken log2 fold change: 0.427

RRIRDRPPRLPRPRPRPTHHPRP
shrunken log2 fold change: 0.224

RRIRKRPPRLPRPRPRPAMEPRP
shrunken log2 fold change: 0.0841

RRIRSRPPRLPRPRPRPFISPRP
shrunken log2 fold change: -0.152

RRIRCRPPRLPRPRPRPCIKPRP
shrunken log2 fold change: -0.426

RRIRMRPPRLPRPRPRPHTYPRP
shrunken log2 fold change: -0.209

RRIRQRPPRLPRPRPRPMHKPRP
shrunken log2 fold change: 0.0742

RRIRRRPPRLPRPRPRPEEKPRP
shrunken log2 fold change: -0.00133

RRIRERPPRLPRPRPRPAMNPRP
shrunken log2 fold change: -0.28

RRIRKRPPRLPRPRPRPVDWPRP
shrunken log2 fold change: 0.852

RRIRDRPPRLPRPRPRPYGKPRP
shrunken log2 fold change: -0.511

RRIRVRPPRLPRPRPRPVIHPRP
shrunken log2 fold change: -0.968

RRIRPRPPRLPRPRPRPMRDPRP
shrunken log2 fold change: 0.467

RRIRFRPPRLPRPRPRPQTSPRP
shrunken log2 fold change: -0.449

RRIRCRPPRLPRPRPRPPTFPRP
shrunken log2 fold change: -0.331

RRIRIRPPRLPRPRPRPNLEPRP
shrunken log2 fold change: -0.114

RRIRPRPPRLPRPRPRPNRSPRP
shrunken log2 fold change: 0.16

RRIRWRPPRLPRPRPRPENEPRP
shrunken log2 fold change: 0.194

RRIRMRPPRLPRPRPRPYWGPRP
shrunken log2 fold change: -0.0296

RRIRERPPRLPRPRPRPHAAPRP
shrunken log2 fold change: -0.0217

RRIRWRPPRLPRPRPRPQDKPRP
shrunken log2 fold change: -0.208

RRIRERPPRLPRPRPRPEYLPRP
shrunken log2 fold change: -1.13

RRIRGRPPRLPRPRPRPPGPPRP
shrunken log2 fold change: 0.821

RRIRQRPPRLPRPRPRPAHLPRP
shrunken log2 fold change: 0.362

RRIRMRPPRLPRPRPRPCTVPRP
shrunken log2 fold change: -0.0102

RRIRQRPPRLPRPRPRPEEYPRP
shrunken log2 fold change: 0.0748

RRIRARPPRLPRPRPRPNSAPRP
shrunken log2 fold change: 0.00853

RRIRVRPPRLPRPRPRPKCIPRP
shrunken log2 fold change: 0.0104

RRIRIRPPRLPRPRPRPIYHPRP
shrunken log2 fold change: -0.622

RRIRHRPPRLPRPRPRPPQEPRP
shrunken log2 fold change: -0.0115

RRIRGRPPRLPRPRPRPSSIPRP
shrunken log2 fold change: 0.0764

RRIRWRPPRLPRPRPRPQRQPRP
shrunken log2 fold change: 0.123

RRIRVRPPRLPRPRPRPTKHPRP
shrunken log2 fold change: -0.135

RRIRFRPPRLPRPRPRPVGAPRP
shrunken log2 fold change: 0.472

RRIRGRPPRLPRPRPRPAGDPRP
shrunken log2 fold change: 1.11

RRIRYRPPRLPRPRPRPLYGPRP
shrunken log2 fold change: -0.82

RRIRKRPPRLPRPRPRPLAKPRP
shrunken log2 fold change: 0.614

RRIRFRPPRLPRPRPRPVALPRP
shrunken log2 fold change: -0.128

RRIRLRPPRLPRPRPRPDKEPRP
shrunken log2 fold change: 0.0143

RRIRSRPPRLPRPRPRPDCFPRP
shrunken log2 fold change: 0.103

RRIRRRPPRLPRPRPRPLDHPRP
shrunken log2 fold change: -0.357

RRIRSRPPRLPRPRPRPYPCPRP
shrunken log2 fold change: 0.0185

RRIRMRPPRLPRPRPRPIWPPRP
shrunken log2 fold change: 0.769

RRIRIRPPRLPRPRPRPAKMPRP
shrunken log2 fold change: -0.101

RRIRERPPRLPRPRPRPVNQPRP
shrunken log2 fold change: -0.123

RRIRDRPPRLPRPRPRPQKEPRP
shrunken log2 fold change: -0.0595

RRIRWRPPRLPRPRPRPAPRPRP
shrunken log2 fold change: 1.12

RRIRYRPPRLPRPRPRPVDRPRP
shrunken log2 fold change: -0.126

RRIRDRPPRLPRPRPRPYKDPRP
shrunken log2 fold change: -0.221

RRIRFRPPRLPRPRPRPALAPRP
shrunken log2 fold change: 0.257

RRIRVRPPRLPRPRPRPNAEPRP
shrunken log2 fold change: 0.0611

RRIRERPPRLPRPRPRPNDKPRP
shrunken log2 fold change: -0.507

RRIRVRPPRLPRPRPRPWTNPRP
shrunken log2 fold change: -0.584
